Assay results reported in article PMC4316771.
pKd: −log10 of the molar value.

Tests used:
[1] = biological target: FcRn-p3 (human FcRn fused to the amino terminal part of the bacteriophage p3 protein and the CVDE protein) (human) (UniProt P55899); experiment: ELISA; FcRn-p3 (0.1 μg/well) coated on Maxisorp plates in P6 (pH 6.0); IgG in HEK293-F supernatants aggregated with HRP F(ab')2 goat anti-human F(ab')2, diluted in P6 to 0.0375 μg/ml, 1 h at 30°C; results as ratio variant/WT
[2] = biological target: human FcγRIIA-R131 (human); experiment: ELISA; C1q (0.5 μg/well) or FcγRIIIA-V158 (0.1 μg/well) coated on Maxisorp plates, FcγRIIA-R131 (0.1 μg/well) or FcγRIIB (0.4 μg/well) on nickel chelate plates; IgG in HEK293-F supernatants aggregated with HRP F(ab')2 goat anti-human F(ab')2, 0.5 μg/ml (0.25 μg/ml for FcγRIIIA-V158) in PBS, 1 h at 30°C; results as ratio variant/WT
human FcγRIIB (human) = human FcγRIIB (human) (UniProt P31994); experiment: as above
[3] = biological target: human FcγRIIIA-V158 (human); experiment: as above
human complement C1q = experiment: as above
[4] = biological target: FcRn-p3 (human FcRn fused to the amino terminal part of the bacteriophage p3 protein and the CVDE protein) (human) (UniProt P55899); experiment: ELISA; phage-ELISA at pH 6.0: FcRn-p3 coated on Maxisorp plates (0.25 μg/well); phage-Fc supernatants diluted 1/2 and 1/4 in P6 (100 mM sodium phosphate, 50 mM NaCl, pH 6.0) with 5% skimmed milk and 0.1% Tween-20; 2 h at 37°C; bound phages detected with HRP anti-M13 antibody; results as ratios of signals
[5] = biological target: soluble human FcRn (human) (UniProt P55899); experiment: SPR; BIAcore X100, CM5 chip, recombinant human FcRn immobilised; IgG 1-200 nM flowed at 10 μl/min, 25°C, 50 mM sodium phosphate pH 6.0, 150 mM NaCl, 0.02% NaN3, 0.01% Tween-20; steady-state affinity model

UniProt P31994, sequence (P31994 43-217): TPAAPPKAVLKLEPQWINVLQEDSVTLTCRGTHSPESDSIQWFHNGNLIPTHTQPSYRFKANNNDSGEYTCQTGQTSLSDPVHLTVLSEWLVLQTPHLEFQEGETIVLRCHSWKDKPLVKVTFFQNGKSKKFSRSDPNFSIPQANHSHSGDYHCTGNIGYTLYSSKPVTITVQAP

Substance	ELISA ratio variant/WT [1]	ELISA ratio variant/WT [2]	ELISA ratio variant/WT (human FcγRIIB (human))	ELISA ratio variant/WT [3]	ELISA ratio variant/WT (human complement C1q)	phage-ELISA ratio/Fc-WT [4]	pKd [5]
anti-CD20 IgG1 variant IgG-LS (produced in HEK293-F cells) (antibody)	4.46	2.52	0.97	1.3	2.39		
Fc variant Fc-YTE (phage-displayed Fc 226-447) (domain or fragment)						3.5	
Fc variant Fc-QL (phage-displayed Fc 226-447) (domain or fragment)						3.2	
anti-CD20 IgG1 IgG-WT (produced in YB2/0 cells) (antibody)							7.00
anti-CD20 IgG1 variant IgG-QL (produced in HEK293-F cells) (antibody)	2.39	0.99	0.95	0.59	2.47		
anti-CD20 IgG1 variant IgG-YTE (produced in HEK293-F cells) (antibody)	2.06	0.27	0.42	0.27	0.64		
